Target: T1, human CD27 (human, UniProt P26842 20-260)
T1 sequence (looked up): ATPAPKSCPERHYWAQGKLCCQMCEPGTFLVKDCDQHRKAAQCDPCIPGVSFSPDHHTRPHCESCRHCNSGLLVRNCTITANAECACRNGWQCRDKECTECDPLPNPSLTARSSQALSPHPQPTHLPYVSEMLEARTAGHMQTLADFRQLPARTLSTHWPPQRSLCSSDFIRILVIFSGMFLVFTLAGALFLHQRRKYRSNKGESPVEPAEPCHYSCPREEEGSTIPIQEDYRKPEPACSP
Experiment: cell-based or functional assay

B1: varlilumab (anti-human CD27 mAb) (antibody, V domains shown)
VH: QVQLVESGGGVVQPGRSLRLSCAASGFTFSSYDMHWVRQAPGKGLEWVAVIWYDGSNKYYADSVKGRFTISRDNSKNTLYLQMNSLRAEDTAVYYCARGSGNWGFFDYWGQGTLVTVSS
VL: DIQMTQSPSSLSASVGDRVTITCRASQGISRWLAWYQQKPEKAPKSLIYAASSLQSGVPSRFSGSGSGTDFTLTISSLQPEDFATYYCQQYNTYPRTFGQGTKVEIK
- level of CD14 on monocytes in human PBMC cultures after 48 hours (flow cytometry): 2 fold
- monocyte number in human PBMC cultures after 48 hours with 5 µg/mL mAb (flow cytometry): 3 fold

From US20190169306A1 (UNIVERSITY OF SOUTHAMPTON, published 2019)
